Drawing on patent US8114638B2, “Arabinitol dehydrogenase from Neurospora crassa” (The Board of Trustees of the University of Illinois, priority 2007, dated 2012), this text covers Km, kcat and kcat/Km for 1 substance.

For the data set, the system named is OC[C@H](O)C(O)[C@@H](O)CO. Description: purified protein, by the assay type. The settings on record: other: with indicated substrate, 25° C., 50 mM Tris pH 8.0, saturated NAD+ (2 mM).

Experimental: Initial rates were determined using a Varian Cary 100 Bio UV-visible spectrophotometer (Varian) at 25° C. in 50 mM Tris (pH 8.0). […] The kinetic data were analyzed with a modified version of Cleland's program (Cleland, W. W. (1979) Statistical analysis of enzyme kinetic data, Methods Enzymol 63, 103-138.).
Kinetics. The data were used to calculate the kinetic constants for various substrates by fitting the Michaelis-Menten equation using Origin 5.0. […] The data represent averages of assays performed in duplicate or triplicate on two separate occasions.

With N. crassa LAD (Neurospora crassa OR74A), the Km is reported as 18 ± 2 mM, the kcat was determined as 20.2 ± 0.5 s⁻¹ and the kcat/Km was determined as 1120 M⁻¹ s⁻¹.

As a reminder, the Km is the concentration of substrate that gives half-maximal velocity. As usually defined, the kcat is the number of substrate molecules converted per active site and unit of time at saturation. As a reminder, the kcat/Km is the second-order rate constant that governs catalysis at low substrate concentration.
